{"source": "paper PMC3166062", "about": "“Self-Association of an Activating Natural Killer Cell Receptor, KIR2DS1” (PLoS ONE, 2011)", "biological_target": "the molecule itself", "assay": "dynamic light scattering; KIR2DS1 3 µM in 10 mM Tris-HCl, 150 mM sodium chloride, 0.4 mM sodium azide, 25°C; Zetasizer Nano ZS; mean hydrodynamic diameter 320 nm"}
{"protein": "extracellular region of KIR2DS1 (domain or fragment, No cleavage of the tag is described; also called extracellular portion of KIR2DS1) MAHEGVHRKPSLLAHPGRLVKSEETVILQCWSDVMFEHFLLHREGMFNDTLRLIGEHHDGVSKANFSISRMRQDLAGTYRCYGSVTHSPYQLSAPSDPLDIVIIGLYEKPSLSAQPGPTVLAGENVTLSCSSRSSYDMYHLSREGEAHERRLPAGTKVNGTFQANFPLGPATHGGTYRCFGSFRDSPYEWSKSSDPLLVSVTLVPRGS", "values": [{"measurement": "binding result", "value": "binds"}]}
